Data published in US20080300188A1 (GENEXINE, published 2008).

How the values were obtained:
[1] = molecular target: T1, C1q (AbD serotech, Cat#. 2221-5504) (UniProt P02745 23-245; P02746 28-253; P02747 29-245); assay: ELISA, sample coated on strip, C1q added, detected with HRP conjugated anti-C1q
T1 construct: Bought C1q, added at 2 ug/ml
Description: (§1) To investigate whether hFc-5-fused proteins bind to FcγRI and C1q, MabThera® (Rituximab, Roche), hIgG1 (Calbiochem, Cat#, 400120), Enbrel® (etanercept, Amgen), EPO-hFc-5, G-CSF-hFc-5 and p40N303Q-hFc-5 were serially diluted (from 2 ug/ml to 16 ng/ml with 2-fold) and coated on the 8 well strip (COSTAR, New York) overnight at 4° C. To make a standard curve, FcγRI (R&D, cat# BAF1257) or C1q (AbD serotech, Cat#. 2221-5504) were also serially diluted (from 2 ug/ml to 32 ng/ml with 2-fold) and coated on the 8 well strip (COSTAR, New York) overnight at 4° C. After washing each strip of samples with washing buffer (PBS containing 0.05% tween) and blocking with 10% FBS in PBS for 1 hour at RT, FcγRI or C1q were added into each well at 2 ug/ml following incubation for 2 hours at room temperature (RT). All strips were washed with washing buffer. For C1q binding test, HRP conjugated anti-C1q (AbD serotech, cat#. 2221-5004P) was added into each well at 2.5 ug/ml following 30 min incubation at RT under dark condition. For FcγRI binding test, biotinylated anti-FcγRI (R&D, cat#. 1257-FC) was added into each well at 2 ug/ml following 1 hour incubation at RT. After washing them with washing buffer, Streptavidine-HRP (BD, cat#. 554066) diluted with 3,000 fold was added into each strip following 30 minute incubation at RT under dark condition. […]

[2] = molecular target: T2, FcγRI (R&D, cat# BAF1257) (UniProt P12314 16-288, limits assumed); assay: ELISA, sample coated on strip, FcγRI added, detected with biotinylated anti-FcγRI and streptavidin-HRP
T2 construct: Bought soluble reagent, added at 2 ug/ml; also called FcγR1
T2 sequence (P12314 16-288 limits assumed): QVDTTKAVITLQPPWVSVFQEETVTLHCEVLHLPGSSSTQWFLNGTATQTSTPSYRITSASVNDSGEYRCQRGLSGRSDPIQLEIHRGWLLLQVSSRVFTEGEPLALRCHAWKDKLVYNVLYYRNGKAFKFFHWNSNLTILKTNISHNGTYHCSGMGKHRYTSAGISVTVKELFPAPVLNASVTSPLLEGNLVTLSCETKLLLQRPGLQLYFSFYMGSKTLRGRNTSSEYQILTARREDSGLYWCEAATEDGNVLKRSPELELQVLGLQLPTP
Description: as §1

T1 sequence (P02745 23-245 limits assumed, chain 1 of 3): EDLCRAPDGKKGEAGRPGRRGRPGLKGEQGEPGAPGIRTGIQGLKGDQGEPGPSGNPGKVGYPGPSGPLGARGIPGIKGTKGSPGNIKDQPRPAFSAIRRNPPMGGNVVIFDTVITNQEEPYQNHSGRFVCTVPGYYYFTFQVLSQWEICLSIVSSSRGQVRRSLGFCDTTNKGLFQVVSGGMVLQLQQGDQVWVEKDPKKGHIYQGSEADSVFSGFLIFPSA
T1 sequence (P02746 28-253 limits assumed, chain 2 of 3): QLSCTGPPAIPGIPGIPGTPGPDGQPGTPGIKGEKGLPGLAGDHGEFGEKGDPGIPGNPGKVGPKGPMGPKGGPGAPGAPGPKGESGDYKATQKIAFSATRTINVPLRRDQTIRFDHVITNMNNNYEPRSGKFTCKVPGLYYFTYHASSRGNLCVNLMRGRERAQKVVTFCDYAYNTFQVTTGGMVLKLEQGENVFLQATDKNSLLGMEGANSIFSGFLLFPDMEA
T1 sequence (P02747 29-245 limits assumed, chain 3 of 3): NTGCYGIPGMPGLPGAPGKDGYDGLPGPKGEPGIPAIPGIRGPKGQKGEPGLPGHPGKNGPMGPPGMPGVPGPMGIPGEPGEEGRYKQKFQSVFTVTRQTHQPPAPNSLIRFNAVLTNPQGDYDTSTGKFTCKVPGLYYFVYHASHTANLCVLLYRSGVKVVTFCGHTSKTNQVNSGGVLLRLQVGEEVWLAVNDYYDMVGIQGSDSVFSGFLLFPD

B1: p40N303Q-hFc-5 (Fc fusion)
chain: IWELKKDVYVVELDWYPDAPGEMVVLTCDTPEEDGITWTLDQSSEVLGSGKTLTIQVKEFGDAGQYTCHKGGEVLSHSLLLLHKKEDGIWSTDILKDQKEPKNKTFLRCEAKNYSGRFTCWWLTTISTDLTFSVKSSRGSSDPQGVTCGAATLSAERVRGDNKEYEYSVECQEDSACPAAEESLPIEVMVDAVHKLKYENYTSSFFIRDIIKPDPPKNLQLKPLKNSRQVEVSWEYPDTWSTPHSYFSLTFCVQVQGKSKREKKDRVFTDKTSATVICRKQASISVRAQDRYYSSSWSEWASVPCSRNTGRGGEEKKKEKEKEEQEERETKTPECPSHTQPLGVFLFPPKPKDTLMISRTPEVTCVVVDVSQEDPEVQFNWYVDGVEVHNAKTKPREEQFNSTYRVVSVLTVLHQDWLNGKEYKCKVSNKGLPSSIEKTISKAKGQPREPQVYTLPPSQEEMTKNQVSLTCLVKGFYPSDIAVEWESNGQPENNYKTTPPVLDSDGSFFLYSRLTVDKSRWQEGNVFSCSVMHEALHNHYTQKSLSLSLGK
notes: also called human p40N303Q-hFc-5
[1]
  binding result: no binding
[2]
  binding result: no binding
